From US20230084763A1 (published 2023)

T1: CD20 (UniProt P11836 1-297)
T1 chain: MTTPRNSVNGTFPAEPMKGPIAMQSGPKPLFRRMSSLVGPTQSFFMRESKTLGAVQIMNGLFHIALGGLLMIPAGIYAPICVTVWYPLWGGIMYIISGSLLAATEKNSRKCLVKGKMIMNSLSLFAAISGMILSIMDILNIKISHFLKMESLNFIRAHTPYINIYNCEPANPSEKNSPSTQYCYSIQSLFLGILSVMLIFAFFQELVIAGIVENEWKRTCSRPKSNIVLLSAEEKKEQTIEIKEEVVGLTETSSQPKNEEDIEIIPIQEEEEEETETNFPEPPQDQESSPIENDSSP

B1: Leu16 (antibody, V domains shown)
VH: EVQLQQSGAELVKPGASVKMSCKASGYTFTSYNMHWVKQTPGQGLEWIGAIYPGNGDTSYNQKFKGKATLTADKSSSTAYMQLSSLTSEDSADYYCARSNYYGSSYWFFDVWGAGTTVTVSS
VL: DIVLTQSPAILSASPGEKVTMTCRASSSVNYMDWYQKKPGSSPKPWIYATSNLASGVPARFSGSGSGTSYSLTISRVEAEDAATYYCQQWSFNPPTFGGGTKLEIK
B2: Rituximab (antibody, V domains shown)
VH: QVQLQQPGAELVKPGASVKMSCKASGYTFTSYNMHWVKQTPGRGLEWIGAIYPGNGDTSYNQKFKGKATLTADKSSSTAYMQLSSLTSEDSAVYYCARSTYYGGDWYFNVWGAGTTVTVSS
VL: QIVLSQSPAILSASPGEKVTMTCRASSSVSYIHWFQQKPGSSPKPWIYATSNLASGVPVRFSGSGSGTSYSLTISRVEAEDAATYYCQQWTSNPPTFGGGTKLEIK
B3: Hybrid (antibody, V domains shown)
VH: QVQLQQPGAELVKPGASVKMSCKASGYTFTSYNMHWVKQTPGRGLEWIGAIYPGNGDTSYNQKFKGKATLTADKSSSTAYMQLSSLTSEDSAVYYCARSNYYGSSYWFFDVWGAGTTVTVSS
VL: QIVLSQSPAILSASPGEKVTMTCRASSSVNYMDWFQQKPGSSPKPWIYATSNLASGVPVRFSGSGSGTSYSLTISRVEAEDAATYYCQQWSFNPPTFGGGTKLEIK

Experiments:
CD20 [1] = target: T1, CD20; assay: bio-layer interferometry; scFv, Run 2
CD20 [2] = target: T1, CD20; assay: bio-layer interferometry; scFv, Run 1
CD20 [3] = target: T1, CD20; assay: bio-layer interferometry; scFv, Avg of 3 runs
CD20 [4] = target: T1, CD20; assay: bio-layer interferometry; scFv, Run 3

Row | Binder | Kd (CD20 [1]) [nM] | Kd (CD20 [2]) [nM] | Kd (CD20 [3]) [nM] | Kd (CD20 [4]) [nM]
1 | B1 | 127 | 157 | 138 | 131
2 | B2 |  |  | 119 | 122
3 | B3 | 95.5 | 75.5 | 84.4 | 82.2
